Where “and” joins values, the source holds several entries; their conditions need not be identical. Identical values can stand only once.
T1: α2-antiplasmin (Homo sapiens, UniProt P08697)
T1 sequence (P08697 40-491): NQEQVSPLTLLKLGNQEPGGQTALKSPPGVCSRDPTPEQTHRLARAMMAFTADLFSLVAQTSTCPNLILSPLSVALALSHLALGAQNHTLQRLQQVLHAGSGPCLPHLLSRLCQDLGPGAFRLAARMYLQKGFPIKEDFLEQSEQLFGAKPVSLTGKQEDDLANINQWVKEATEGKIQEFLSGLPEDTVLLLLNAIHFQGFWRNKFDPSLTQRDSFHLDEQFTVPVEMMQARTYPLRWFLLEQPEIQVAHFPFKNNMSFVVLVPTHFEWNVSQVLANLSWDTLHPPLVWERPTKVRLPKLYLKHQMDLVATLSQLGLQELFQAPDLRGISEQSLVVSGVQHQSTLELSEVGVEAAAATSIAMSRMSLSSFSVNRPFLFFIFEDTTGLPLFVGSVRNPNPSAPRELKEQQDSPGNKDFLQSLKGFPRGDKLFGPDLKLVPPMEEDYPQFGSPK


What was measured:
[1] = amidolytic activity with plasmin substrate S-2251, steady-state kinetics; type: biochemical; conditions: substrate S-2251, PBS buffer, pH 7.4, 25° C.; for kcat: for (TAL6003)-plasmin corrected for percent active sites
Protocol: The amidolytic activity of (TAL6003)-plasmin was examined using the plasmin substrate D-Val-Leu-Lys-p-nitroanilide (S-2251) (DiaPharma, West Chester, Ohio).
Correcting kcat for percent active sites, a kcat of about 725 min^−1 was determined. This value was very close to the value determined in the same assay for full-length plasmin, 820±23 min^−1 and for micro-plasmin (lacking all five kringles), 795±24 min^−1.

[2] = molecular target: T1, α2-antiplasmin; test: rate of inhibition by α2-antiplasmin (method of Wiman and Collen, S-2251 activity at time points); type: biochemical; conditions: 22° C. in PBS buffer, pH 7.4
Protocol: The rate of inhibition of (TAL6003)-plasmin by α2-antiplasmin was determined to be 1.8±0.06×10^7 M^−1 s^−1 using the method of Wiman and Collen (Wiman, B. and D. Collen, Eur. J. Biochem. 84: 573-578 (1978)) in which plasmin and α2-antiplasmin are mixed then assayed for S-2251 activity at specific time points (Table 3).
Literature values are taken from Anonick, et al., Thrombosis Res. 59: 449 (1990). All rates were measured according to the methods published in Anonick, et al.

[3] = molecular target: T1, α2-antiplasmin; conditions: from Anonick et al., cited from earlier work
[4] = binding of ε-ACA measured by changes in protein fluorescence; conditions: 50 mM Tris, 20 mM NaCl, pH 8.0, 25° C.; 0-50 μM ε-ACA
Protocol: To further confirm the functionality of kringle 1, the binding of ε-ACA to (TAL6003)-plasminogen was measured by monitoring the associated changes in protein fluorescence as described by Matsuka et al., Eur. J. Biochem. 190: 93-97 (1990) and Douglas et al., J. Biochemistry 41: 3302-3310 (2002), all incorporated herein by reference. Binding of ε-ACA to kringle 1 of (TAL6003)-plasminogen results in a decrease in fluorescence, likely due to quenching of the tryptophan residues which are part of the lysine-binding site.
To monitor this process, 4 μL to 16 μL aliquots of a concentrated solution of ε-ACA were added to 2 mL of 5 μM (TAL6003)-plasminogen in 50 mM Tris buffer containing 20 mM NaCl, pH 8.0, 25° C. The fluorescence was monitored at an excitation wavelength of 298 nm and an emission wavelength of 340 nm in a FLUOROMAX fluorescence spectrophotometer (Jobin Yvon, Inc., Edison, N.J.); after each addition of ε-ACA, the solution was allowed to equilibrate until no further changes in fluorescence were observed.
The resulting fluorescence values were corrected for dilution and plotted versus the concentration of ε-ACA over a range of 0-50 μM ε-ACA.

[5] = binding to lysine-SEPHAROSE 4B column, elution with ε-ACA gradient
Protocol: FIG. 7 is a chromatogram showing binding of (TAL6003)-plasminogen to lysine-SEPHAROSE™ 4B: 0.5 mg of purified (TAL6003)-plasminogen was applied on the lysine-SEPHAROSE™ 4B column (1×3 cm) equilibrated with Tris-buffered saline, pH 7.4. Bound protein was eluted from the column by a 0-20 mM gradient of ε-aminocaproic acid (ε-ACA) as a single peak. The absorbance at 280 nm and the concentration of ε-ACA, as a function of the effluent volume are presented on the graph.
To confirm the functionality of kringle 1, we determined the binding of TAL6003-plasminogen to lysine-SEPHAROSE™ 4B.

[6] = molecular target: fibrin; test: fibrin binding microtiter plate assay (activation by tPA and resulting clot lysis)
Protocol: One property of plasminogen is its ability to bind fibrin. In order to determine whether (TAL6003)-plasminogen retains the ability to interact with fibrin, its fibrin-binding properties was tested in a microtiter plate assay in which binding of (TAL6003)-plasminogen to fibrin was assessed by its subsequent activation by tPA and resulting clot lysis. For this purpose, 100 μL of 5 mg/mL fibrinogen was polymerized with thrombin in each well of a microtiter plate. Various concentrations of (TAL6003)-plasminogen was added on top of the fibrin clots and incubated for 1 hour at 37° C. The plate was washed extensively with PBS while the fibrin clots are still intact and attached to the wells. After washing, a 0.1 mg/mL solution of tPA was added to each well and the plate was incubated 2 hours at 37° C. As a result, some of the clots were completely dissolved and some were partially dissolved, while wells with very low amounts of (TAL6003)-plasminogen and control wells remained practically intact. The degree of fibrinolysis was monitored by measuring the 280 nm absorbance of remainders of the initial clots reconstituted in 1 M NaOH. The absorbance values were plotted as a function of (TAL6003)-plasminogen concentration.

Kd [4]	ε-ACA concentration at elution peak from lysine-SEPHAROSE ([5]; 0-20 mM ε-ACA gradient, single peak)	binding to lysine-SEPHAROSE 4B ([5]; column equilibrated with Tris-buffered saline, pH 7.4)	EC50 ([6]; 1 hour at 37° C. on fibrin clots, then tPA 2 hours, read-out: C50 of fibrin binding)	Molecule	Km [1]	kcat [1]	rate of inhibition by α2-antiplasmin [2]	rate of inhibition by α2-antiplasmin (literature value, table) ([3]; 22° C. in PBS buffer, pH 7.4)	rate of inhibition by α2-antiplasmin (reported value, text) ([3]; Thrombosis Res. 59: 449 (1990))	kcat ([1]; listed as full-length plasmin)	fibrin binding affinity ([6]; relative to full-length plasminogen)
				mini-plasmin: activated mini-plasminogen; domain composition K5-SP (kringle 5 and serine protease domain) (protein) VAPPPVVLLPDVETPSEEDCMFGNGKGYRGKRATTVTGTPCQDWAAQEPHRHSIFTPETNPRAGLEKNYCRNPDGDVGGPWCYTTNPRKLYDYCDVPQCAAPSFDCGKPQVEPKKCPGRVVGGCVAHPHSWPWQVSLRTRFGMHFCGGTLISPEWVLTAAHCLEKSPRPSSYKVILGAHQEVNLEPHVQEIEVSRLFLEPTRKDIALLKLSSPAVITDKVIPACLPSPNYVVADRTECFITGWGETQGTFGAGLLKEAQLPVIENKVCNRYEFLNGRVQSTELCAGHLAGGTDSCQGDSGGPLVCFEKDKYILQGVTSWGLGCARPNKPGVYVRVSRFVTWIEGVMRNN	160 ± 30 µM	12.8 ± 1.17 s⁻¹	2.4×10^5 M^−1 s^−1 and 2.4 ± 0.5 × 10^5 M^−1 s^−1				
				plasmin: native full-length human plasmin with five kringle domains and serine protease domain (protein, UniProt P00747 20-580; P00747 581-810, looked up, plasmin, native full-length human plasmin with five kringle domains and serine protease domain) Plasmin heavy chain A: EPLDDYVNTQGASLFSVTKKQLGAGSIEECAAKCEEDEEFTCRAFQYHSKEQQCVIMAENRKSSIIIRMRDVVLFEKKVYLSECKTGNGKNYRGTMSKTKNGITCQKWSSTSPHRPRFSPATHPSEGLEENYCRNPDNDPQGPWCYTTDPEKRYDYCDILECEEECMHCSGENYDGKISKTMSGLECQAWDSQSPHAHGYIPSKFPNKNLKKNYCRNPDRELRPWCFTTDPNKRWELCDIPRCTTPPPSSGPTYQCLKGTGENYRGNVAVTVSGHTCQHWSAQTPHTHNRTPENFPCKNLDENYCRNPDGKRAPWCHTTNSQVRWEYCKIPSCDSSPVSTEQLAPTAPPELTPVVQDCYHGDGQSYRGTSSTTTTGKKCQSWSSMTPHRHQKTPENYPNAGLTMNYCRNPDADKGPWCFTTDPSVRWEYCNLKKCSGTEASVVAPPPVVLLPDVETPSEEDCMFGNGKGYRGKRATTVTGTPCQDWAAQEPHRHSIFTPETNPRAGLEKNYCRNPDGDVGGPWCYTTNPRKLYDYCDVPQCAAPSFDCGKPQVEPKKCPGR Plasmin light chain B: VVGGCVAHPHSWPWQVSLRTRFGMHFCGGTLISPEWVLTAAHCLEKSPRPSSYKVILGAHQEVNLEPHVQEIEVSRLFLEPTRKDIALLKLSSPAVITDKVIPACLPSPNYVVADRTECFITGWGETQGTFGAGLLKEAQLPVIENKVCNRYEFLNGRVQSTELCAGHLAGGTDSCQGDSGGPLVCFEKDKYILQGVTSWGLGCARPNKPGVYVRVSRFVTWIEGVMRNN	220 ± 9 µM	13.7 ± 0.383 s⁻¹		2.5 ± 0.5 × 10^7 M^−1 s^−1	2.5×10^7 M^−s^−1	13.7 ± 0.383 s⁻¹	
				micro-plasmin: plasmin species lacking all five kringles (protein) APSFDCGKPQVEPKKCPGRVVGGCVAHPHSWPWQVSLRTRFGMHFCGGTLISPEWVLTAAHCLEKSPRPSSYKVILGAHQEVNLEPHVQEIEVSRLFLEPTRKDIALLKLSSPAVITDKVIPACLPSPNYVVADRTECFITGWGETQGTFGAGLLKEAQLPVIENKVCNRYEFLNGRVQSTELCAGHLAGGTDSCQGDSGGPLVCFEKDKYILQGVTSWGLGCARPNKPGVYVRVSRFVTWIEGVMRNN	145 ± 13 µM	13.2 ± 0.4 s⁻¹	1.8 ± 0.2 × 10^5 M^−1 s^−1				
~19 µM	about 4 mM	bound to lysine-SEPHAROSE™	~0.3 µM	(TAL6003)-plasminogen: recombinant plasminogen deletion mutant, single kringle plus serine protease domain, amino acid sequence SEQ ID NO: 2, expressed in E. coli (protein, Polypeptide having a single N-terminal kringle domain homologous to a kringle domain of a native human plasminogen) MRDVVLFEKKVYLSECKTGNGKNYRGTMSKTKNGITCQKWSSTSPHRPRFSPATHPSEGLEENYCRNPDNDPQGPWCYTTDPEKRYDYCDVPQCAAPSFDCGKPQVEPKKCPGRVVGGCVAHPHSWPWQVSLRTRFGMHFCGGTLISPEWVLTAAHCLEKSPRPSSYKVILGAHQEVNLEPHVQEIEVSRLFLEPTRKDIALLKLSSPAVITDKVIPACLPSPNYVVADRTECFITGWGETQGTFGAGLLKEAQLPVIENKVCNRYEFLNGRVQSTELCAGHLAGGTDSCQGDSGGPLVCFEKDKYILQGVTSWGLGCARPNKPGVYVRVSRFVTWIEGVMRNN							comparable to that of full-length plasminogen
